Target: human amyloid β (Aβ) peptides secreted into the medium of Tg2576 neuron cultures (Aβ40, Aβ42 and their oligomers) (human) (UniProt P05067)
Assay: cell-based or functional assay

Chain of human amyloid β (Aβ) peptides secreted into the medium of Tg2576 neuron cultures (Aβ40, Aβ42 and their oligomers) (human) (P05067 672-713 limits assumed): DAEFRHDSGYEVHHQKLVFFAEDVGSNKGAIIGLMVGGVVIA

[Ca2+]i of wild-type neurons treated with TgCM depleted with 3D6 (Indo-1): 98 nM
Substance: 3D6 antibody, a high-titer monoclonal Aβ antibody
